From article PMC5559640

System: Pho7 DBD, Pho7(279-368) (Schizosaccharomyces pombe)
Assay: EMSA
Conditions: EMSA: 50 mM Tris-HCl pH 7.4, 10% glycerol, 340 ng poly(dI-dC), 0.6-1 pmol DNA in 10 ul, about 50 mM NaCl and 0.02% Triton X-100 from 2 ul protein diluent …; for binding signal: 27 ng Pho7 DBD, 1 pmol DNA

Sequence	binding signal	other results
TTTCCTTCGGACAAACAAATCAGT (double strand) [tgp1 24-bp Mut2 (TT to AA)]	45 % DNA bound	
TTTCCTTCGGACATTCTTATCAGT (double strand) [tgp1 24-bp Mut3 (AA to TT)]	23 % DNA bound	
CCGGAAATAGTTTTATTCGGAAATTAAAAACAAGTTTATGGCG (double strand) [pho1 site 2 43-bp DNA]		binding signal (fold affinity vs site 1 (N4)) (8.3-66 ng Pho7 DBD): 2
CAACAGGGGAATAGTCGCTGCTTGAAACATCCGGAAATAG (double strand) [pho1 site 1 40-bp DNA]		binding signal (fold affinity vs site 2 (N5)) (8.3-66 ng Pho7 DBD): 0.5
TTTCCTTCGGACATTCAAATCAGT (double strand) [tgp1 24-bp WT]	81 % DNA bound	
